Each block holds one substance with its values, some of them ahead of it.
Biological target: Cy5-labeled proliferating cell nuclear antigen (PCNA) (human) (UniProt P12004)
Sequence (P12004 whole entry): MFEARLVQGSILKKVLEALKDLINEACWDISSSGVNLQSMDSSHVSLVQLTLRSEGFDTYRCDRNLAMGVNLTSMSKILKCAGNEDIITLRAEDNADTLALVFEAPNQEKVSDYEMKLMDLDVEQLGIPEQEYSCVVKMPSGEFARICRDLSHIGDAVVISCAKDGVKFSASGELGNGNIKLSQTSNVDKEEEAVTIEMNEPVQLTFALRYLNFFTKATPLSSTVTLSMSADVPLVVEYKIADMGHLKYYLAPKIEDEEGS

Chain of ΔN-PAF15 (truncated PAF15 variant lacking residues 2-31) (Q15004 32-111, stated change not applied): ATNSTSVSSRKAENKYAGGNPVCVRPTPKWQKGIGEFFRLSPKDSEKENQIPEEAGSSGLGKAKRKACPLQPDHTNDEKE
Chain of Doubly monoubiquitinated PAF15 (Di-UbPAF15) (Q15004 whole entry, looked up): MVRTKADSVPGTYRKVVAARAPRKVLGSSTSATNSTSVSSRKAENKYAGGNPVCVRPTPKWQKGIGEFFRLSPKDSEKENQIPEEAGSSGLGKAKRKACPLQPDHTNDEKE
Chain of PAF15^50–77 peptide (Q15004 50-77): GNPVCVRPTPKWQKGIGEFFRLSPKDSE

- diffusion constant of Cy5-PCNA on DNA with 1 μM ΔN-PAF15: 0.15 μm2/s
Substance: ΔN-PAF15 (truncated PAF15 variant lacking residues 2-31) (from UniProt Q15004 32-111) (domain or fragment)

- diffusion constant of Cy5-PCNA on DNA with 20 μM PAF15 50-77: 0.22 μm2/s
Substance: PAF15^50–77 peptide

- diffusion constant of Cy5-PCNA on DNA with 1 μM Di-UbPAF15: 0.2 μm2/s
Substance: Doubly monoubiquitinated PAF15 (Di-UbPAF15) (from UniProt Q15004 2-111) (complex)
